Experimental data taken from patent publication US20240343803A1.

Target: cynomolgus monkey PVRIG on FlpinCHO-cyno PVRIG cells (cynomolgus monkey)
Test: FACS, FlpinCHO-cyno PVRIG cells

cynomolgus monkey PVRIG on FlpinCHO-cyno PVRIG cells (cynomolgus monkey), sequence (chain, as listed by the source): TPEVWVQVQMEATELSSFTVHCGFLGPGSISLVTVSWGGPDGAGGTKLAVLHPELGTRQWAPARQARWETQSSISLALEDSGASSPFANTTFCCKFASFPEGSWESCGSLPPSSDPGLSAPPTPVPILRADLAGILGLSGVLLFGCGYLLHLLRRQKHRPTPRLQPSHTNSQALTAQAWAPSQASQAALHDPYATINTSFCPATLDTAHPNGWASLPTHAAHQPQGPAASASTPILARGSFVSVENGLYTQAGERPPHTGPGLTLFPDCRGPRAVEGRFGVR

B1: PVRIG-A105-H3a (Fc fusion, not shown: a dimerising Fc or GST)
chain: EVQLVESGGGLVQPGGSLRLSCAASGRTFDRHTMTWFRQAPGKEREFVATASRIPGDTYYVDSVKGRFTISRDNAKNSVYLQMNSLRAEDTAVYYCAATSAYSSEVDSYEKGSWYDNWGQGTMVTVSS
  AUC % to COM701-hIgG1: 3.27%
  AUC % to SRF813-hIgG1: 4.05%
  AUC % to parental Ab: 3.74%
